From the supplement of paper PMC5998384

Assays:
HeLa Kyoto [1] = test: solubility change mitosis vs G1/S (difference of NP-40 vs SDS log2 ratios) (log2 ratio difference); higher = more soluble in mitosis
HeLa Kyoto [2] = test: melting temperature (median over replicates), in situ; higher = more thermally stable
HeLa Kyoto [3] = test: thermal stability score vs G1/S (z-score of summed log2 fold changes over temperatures); higher = more thermally stable than in G1/S
HeLa Kyoto [4] = test: solubility in G1/S (NP-40 vs SDS abundance) (log2 ratio); higher = more soluble; conditions: cell cycle stage: G1/S
[5] = cell cycle stage: early G1 (4.5 h after nocodazole release)
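For melting temperature (median over replicates), in situ in this document: HeLa Kyoto cells synchronized by double thymidine or nocodazole block, proteins quantified by TMT10plex mass spectrometry, three independent biological replicates.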
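For solubility change mitosis vs G1/S (difference of NP-40 vs SDS log2 ratios) in this document: synchronized HeLa Kyoto cells (double thymidine block for G1/S, nocodazole release for mitosis), protein amounts in NP-40 versus SDS lysates quantified by mass spectrometry, three biological replicates.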
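For solubility in G1/S (NP-40 vs SDS abundance) in this document: HeLa Kyoto cells arrested at G1/S by double thymidine block, proteins quantified by TMT10plex mass spectrometry in mild NP-40 versus SDS extracts, three biological replicates.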
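For thermal stability score vs G1/S (z-score of summed log2 fold changes over temperatures) in this document: synchronized HeLa Kyoto cells, proteins quantified by TMT10plex mass spectrometry, three biological replicates, mitosis taken 0.5 h after nocodazole release, G1/S directly after double thymidine block.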

MELSDANLQTLTEYLKKTLDPDPAIRRPAEKFLESVEGNQNYPLLLLTLLEKSQDNVIKVCASVTFKNYIKRNWRIVEDEPNKICEADRVAIKANIVHLMLSSPEQIQKQLSDAISIIGREDFPQKWPDLLTEMVNRFQSGDFHVINGVLRTAHSLFKRYRHEFKSNELWTEIKLVLDAFALPLTNLFKATIELCSTHANDASALRILFSSLILISKLFYSLNFQDLPEFFEDNMETWMNNFHTLLTLDNKLLQTDDEEEAGLLELLKSQICDNAALYAQKYDEEFQRYLPRFVTAIWNLLVTTGQEVKYDLLVSNAIQFLASVCERPHYKNLFEDQNTLTSICEKVIVPNMEFRAADEEAFEDNSEEYIRRDLEGSDIDTRRRAACDLVRGLCKFFEGPVTGIFSGYVNSMLQEYAKNPSVNWKHKDAAIYLVTSLASKAQTQKHGITQANELVNLTEFFVNHILPDLKSANVNEFPVLKADGIKYIMIFRNQVPKEHLLVSIPLLINHLQAESIVVHTYAAHALERLFTMRGPNNATLFTAAEIAPFVEILLTNLFKALTLPGSSENEYIMKAIMRSFSLLQEAIIPYIPTLITQLTQKLLAVSKNPSKPHFNHYMFEAICLSIRITCKANPAAVVNFEEALFLVFTEILQNDVQEFIPYVFQVMSLLLETHKNDIPSSYMALFPHLLQPVLWERTGNIPALVRLLQAFLERGSNTIASAAADKIPGLLGVFQKLIASKANDHQGFYLLNSIIEHMPPESVDQYRKQIFILLFQRLQNSKTTKFIKSFLVFINLYCIKYGALALQEIFDGIQPKMFGMVLEKIIIPEIQKVSGNVEKKICAVGITKLLTECPPMMDTEYTKLWTPLLQSLIGLFELPEDDTIPDEEHFIDIEDTPGYQTAFSQLAFAGKKEHDPVGQMVNNPKIHLAQSLHKLSTACPGRVPSMVSTSLNAEALQYLQGYLQAASVTLL [CSE1L]
solubility change mitosis (log2) (HeLa Kyoto [1]): -0.225
melting temperature (HeLa Kyoto [2]; cell cycle stage: G1/S): 50.4 °C
melting temperature (HeLa Kyoto [2]; cell cycle stage: mitosis): 49.5 °C
thermal stability score (HeLa Kyoto [3]; [5]): 1.44
thermal stability score (HeLa Kyoto [3]; cell cycle stage: mitosis): 2.55
solubility in G1/S (log2) (HeLa Kyoto [4]): -0.0863

MKVVNLKQAILQAWKERWSDYQWAINMKKFFPKGATWDILNLADALLEQAMIGPSPNPLILSYLKYAISSQMVSYSSVLTAISKFDDFSRDLCVQALLDIMDMFCDRLSCHGKAEECIGLCRALLSALHWLLRCTAASAERLREGLEAGTPAAGEKQLAMCLQRLEKTLSSTKNRALLHIAKLEEASSWTAIEHSLLKLGEILANLSNPQLRSQAEQCGTLIRSIPTMLSVHAEQMHKTGFPTVHAVILLEGTMNLTGETQSLVEQLTMVKRMQHIPTPLFVLEIWKACFVGLIESPEGTEELKWTAFTFLKIPQVLVKLKKYSHGDKDFTEDVNCAFEFLLKLTPLLDKADQRCNCDCTNFLLQECGKQGLLSEASVNNLMAKRKADREHAPQQKSGENANIQPNIQLILRAEPTVTNILKTMDADHSKSPEGLLGVLGHMLSGKSLDLLLAAAAATGKLKSFARKFINLNEFTTYGSEESTKPASVRALLFDISFLMLCHVAQTYGSEVILSESRTGAEVPFFETWMQTCMPEEGKILNPDHPCFRPDSTKVESLVALLNNSSEMKLVQMKWHEACLSISAAILEILNAWENGVLAFESIQKITDNIKGKVCSLAVCAVAWLVAHVRMLGLDEREKSLQMIRQLAGPLFSENTLQFYNERVVIMNSILERMCADVLQQTATQIKFPSTGVDTMPYWNLLPPKRPIKEVLTDIFAKVLEKGWVDSRSIHIFDTLLHMGGVYWFCNNLIKELLKETRKEHTLRAVELLYSIFCLDMQQVTLVLLGHILPGLLTDSSKWHSLMDPPGTALAKLAVWCALSSYSSHKGQASTRQKKRHREDIEDYISLFPLDDVQPSKLMRLLSSNEDDANILSSPTDRSMSSSLSASQLHTVNMRDPLNRVLANLFLLISSILGSRTAGPHTQFVQWFMEECVDCLEQGGRGSVLQFMPFTTVSELVKVSAMSSPKVVLAITDLSLPLGRQVAAKAIAAL [MED24]
solubility change mitosis (log2) (HeLa Kyoto [1]): 0.0385
melting temperature (HeLa Kyoto [2]; cell cycle stage: G1/S): 50.8 °C
melting temperature (HeLa Kyoto [2]; cell cycle stage: mitosis): 52.2 °C
thermal stability score (HeLa Kyoto [3]; [5]): 1.11
thermal stability score (HeLa Kyoto [3]; cell cycle stage: mitosis): 1.86
solubility in G1/S (log2) (HeLa Kyoto [4]): -0.322

MAEKVLVTGGAGYIGSHTVLELLEAGYLPVVIDNFHNAFRGGGSLPESLRRVQELTGRSVEFEEMDILDQGALQRLFKKYSFMAVIHFAGLKAVGESVQKPLDYYRVNLTGTIQLLEIMKAHGVKNLVFSSSATVYGNPQYLPLDEAHPTGGCTNPYGKSKFFIEEMIRDLCQADKTWNAVLLRYFNPTGAHASGCIGEDPQGIPNNLMPYVSQVAIGRREALNVFGNDYDTEDGTGVRDYIHVVDLAKGHIAALRKLKEQCGCRIYNLGTGTGYSVLQMVQAMEKASGKKIPYKVVARREGDVAACYANPSLAQEELGWTAALGLDRMCEDLWRWQKQNPSGFGTQA [GALE]
solubility change mitosis (log2) (HeLa Kyoto [1]): -0.146
melting temperature (HeLa Kyoto [2]; cell cycle stage: G1/S): 53.3 °C
melting temperature (HeLa Kyoto [2]; cell cycle stage: mitosis): 53.8 °C
thermal stability score (HeLa Kyoto [3]; [5]): -3.9
thermal stability score (HeLa Kyoto [3]; cell cycle stage: mitosis): -0.458
solubility in G1/S (log2) (HeLa Kyoto [4]): 0.453

MNIMNTEQSQNSIVSRIKVFEGQTNIETSGLPKKPEITPRSLPPKPTVSSGKPSVAPKPAANRASGEWDSGTENRLKVTSKEGLTPYPPLQEAGSIPVTKPELPKKPNPGLIRSVNPEIPGRGPLAESSDSGKKVPTPAPRPLLLKKSVSSENPTYPSAPLKPVTVPPRLAGASQAKAYKSLGEGPPANPPVPVLQSKPLVDIDLISFDDDVLPTPSGNLAEESVGSEMVLDPFQLPAKTEPIKERAVQPAPTRKPTVIRIPAKPGKCLHEDPQSPPPLPAEKPIGNTFSTVSGKLSNVERTRNLESNHPGQTGGFVRVPPRLPPRPVNGKTIPTQQPPTKVPPERPPPPKLSATRRSNKKLPFNRSSSDMDLQKKQSNLATGLSKAKSQVFKNQDPVLPPRPKPGHPLYSKYMLSVPHGIANEDIVSQNPGELSCKRGDVLVMLKQTENNYLECQKGEDTGRVHLSQMKIITPLDEHLRSRPNDPSHAQKPVDSGAPHAVVLHDFPAEQVDDLNLTSGEIVYLLEKIDTDWYRGNCRNQIGIFPANYVKVIIDIPEGGNGKRECVSSHCVKGSRCVARFEYIGEQKDELSFSEGEIIILKEYVNEEWARGEVRGRTGIFPLNFVEPVEDYPTSGANVLSTKVPLKTKKEDSGSNSQVNSLPAEWCEALHSFTAETSDDLSFKRGDRIQILERLDSDWCRGRLQDREGIFPAVFVRPCPAEAKSMLAIVPKGRKAKALYDFRGENEDELSFKAGDIITELESVDDDWMSGELMGKSGIFPKNYIQFLQIS [SH3D19]
solubility change mitosis (log2) (HeLa Kyoto [1]): -0.127
melting temperature (HeLa Kyoto [2]; cell cycle stage: mitosis): 49 °C
thermal stability score (HeLa Kyoto [3]; [5]): 0.0615
thermal stability score (HeLa Kyoto [3]; cell cycle stage: mitosis): -0.175
solubility in G1/S (log2) (HeLa Kyoto [4]): 0.173

MMKFRFRRQGADPQREKLKQELFAFNKTVEHGFPNQPSALAFDPELRIMAIGTRSGAVKIYGAPGVEFTGLHRDAATVTQMHFLTGQGRLLSLLDDSSLHLWEIVHHNGCAHLEEALSFQLPSRPGFDGASAPLSLTRVTVVLLVAASDIAALGTEGSSVFFLDVTTLTLLEGQTLAPGEVLRSVPDDYRCGKALGPVESLQGHLRDPTKILIGYSRGLLVIWNQASQCVDHIFLGNQQLESLCWGRDSSTVVSSHSDGSYAVWSVDAGSFPTLQPTVATTPYGPFPCKAINKILWRNCESGGHFIIFSGGMPRASYGDRHCVSVLRAETLVTLDFTSRIIDFFTVHSTRPEDEFDDPQALAVLLEEELVVLDLQTPGWPAVPAPYLAPLHSSAITCSAHVASVPAKLWARIVSAGEQQSPQPVSSALSWPITGGRNLAQEPSQRGLLLTGHEDGTVRFWDASGVALRPLYKLSTAGLFQTDCEHADSLAQAAEDDWPPFRKVGCFDPYSDDPRLGVQKVALCKYTAQMVVAGTAGQVLVLELSDVPVEQAVSVAIIDLLQDREGFTWKGHERLSPRTGPLPWPAGFQPRVLVQCLPPAAVTAVTLHTEWSLVAFGTSHGFGLFDYQRKSPVLARCTLHPNDSLAMEGPLSRVKSLKKSLRQSFRRIRKSRVSGKKRAANASSKLQEANAQLAEQACPHDVEMTPVQRRIEPRSADDSLSGVVRCLYFADTFLRDGAHHGPTMWAGTNSGSVFAYALEVPAAAVGGEKRPEQAVEAVLGKEVQLMHRAPVVAIAVLDGRGRPLPEPYEASRDLAQAPDMQGGHAVLIASEEQFKVFTLPKVSAKTKFKLTAHEGCRVRKVALATFASVACEDYAETCLACLTNLGDVHVFSVPGLRPQVHYSCIRKEDISGIASCVFTRHGQGFYLISPSEFERFSLSARNITEPLCSLDINWPRDATQASYRIRESPKLSQANGTPSILLAPQSLDGSPDPAHSMGPDTPEPPEAALSPMSIDSATSADTTLDTTGDVTVEDVKDFLGSSEESEKNLRNLAEDEAHACAILIK [LLGL1]
solubility change mitosis (log2) (HeLa Kyoto [1]): -0.209
melting temperature (HeLa Kyoto [2]; cell cycle stage: G1/S): 50.9 °C
melting temperature (HeLa Kyoto [2]; cell cycle stage: mitosis): 49.7 °C
thermal stability score (HeLa Kyoto [3]; [5]): -0.436
thermal stability score (HeLa Kyoto [3]; cell cycle stage: mitosis): -0.753
solubility in G1/S (log2) (HeLa Kyoto [4]): 0.0124

MQMVPSLPPASECAGEEKRVGTRTVFVGNHPVSETEAYIAQRFCDNRIVSSKYTLWNFLPKNLFEQFRRIANFYFLIIFLVQVTVDTPTSPVTSGLPLFFVITVTAIKQGYEDCLRHRADNEVNKSTVYIIENAKRVRKESEKIKVGDVVEVQADETFPCDLILLSSCTTDGTCYVTTASLDGESNCKTHYAVRDTIALCTAESIDTLRAAIECEQPQPDLYKFVGRINIYSNSLEAVARSLGPENLLLKGATLKNTEKIYGVAVYTGMETKMALNYQGKSQKRSAVEKSINAFLIVYLFILLTKAAVCTTLKYVWQSTPYNDEPWYNQKTQKERETLKVLKMFTDFLSFMVLFNFIIPVSMYVTVEMQKFLGSFFISWDKDFYDEEINEGALVNTSDLNEELGQVDYVFTDKTGTLTENSMEFIECCIDGHKYKGVTQEVDGLSQTDGTLTYFDKVDKNREELFLRALCLCHTVEIKTNDAVDGATESAELTYISSSPDEIALVKGAKRYGFTFLGNRNGYMRVENQRKEIEEYELLHTLNFDAVRRRMSVIVKTQEGDILLFCKGADSAVFPRVQNHEIELTKVHVERNAMDGYRTLCVAFKEIAPDDYERINRQLIEAKMALQDREEKMEKVFDDIETNMNLIGATAVEDKLQDQAAETIEALHAAGLKVWVLTGDKMETAKSTCYACRLFQTNTELLELTTKTIEESERKEDRLHELLIEYRKKLLHEFPKSTRSFKKAWTEHQEYGLIIDGSTLSLILNSSQDSSSNNYKSIFLQICMKCTAVLCCRMAPLQKAQIVRMVKNLKGSPITLSIGDGANDVSMILESHVGIGIKGKEGRQAARNSDYSVPKFKHLKKLLLAHGHLYYVRIAHLVQYFFYKNLCFILPQFLYQFFCGFSQQPLYDAAYLTMYNICFTSLPILAYSLLEQHINIDTLTSDPRLYMKISGNAMLQLGPFLYWTFLAAFEGTVFFFGTYFLFQTASLEENGKVYGNWTFGTIVFTVLVFTVTLKLALDTRFWTWINHFVIWGSLAFYVFFSFFWGGIIWPFLKQQRMYFVFAQMLSSVSTWLAIILLIFISLFPEILLIVLKNVRRRSARRNLSCRRASDSLSARPSVRPLLLRTFSDESNVL [ATP11C]
solubility change mitosis (log2) (HeLa Kyoto [1]): -0.202
melting temperature (HeLa Kyoto [2]; cell cycle stage: G1/S): 55.2 °C
melting temperature (HeLa Kyoto [2]; cell cycle stage: mitosis): 55 °C
thermal stability score (HeLa Kyoto [3]; [5]): -0.694
thermal stability score (HeLa Kyoto [3]; cell cycle stage: mitosis): -1.66
solubility in G1/S (log2) (HeLa Kyoto [4]): -0.156
